{
  "source": "paper PMC3044595",
  "target": "BclA N-terminal 35 amino acids fused to eGFP (Bacillus anthracis) (UniProt Q81JD7)",
  "experiment": "FRET or BRET",
  "data": [
    {"substance": "BxpB-mCherry fusion (from UniProt S5W424 1-167) (natural protein)", "values": [
      {"measurement": "fold decrease of the eGFP signal (FRET), against BclA NTD-eGFP alone", "value": 2.1, "unit": "fold"},
      {"measurement": "percent of FRET positive spores", "value": 14.8, "unit": "%"}
    ]}
  ]
}
